Each block holds one molecule with its values, some of them ahead of it.
Key:
Assay in all cases: co-IP
[1] = target: Mdv1p-HTM (S. cerevisiae) (UniProt P47025)
[2] = target: M3TH-Fis1p (3XMyc/TEV/His8-Fis1p) (S. cerevisiae) (UniProt P40515)
[3] = target: Caf4p-HTM (S. cerevisiae) (UniProt P36130)

Sequence of UniProt P40515 (P40515 whole entry): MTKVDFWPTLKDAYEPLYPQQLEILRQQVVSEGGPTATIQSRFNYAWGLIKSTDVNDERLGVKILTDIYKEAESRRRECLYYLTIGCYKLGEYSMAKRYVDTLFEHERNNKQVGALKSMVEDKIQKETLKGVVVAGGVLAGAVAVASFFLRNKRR

Molecule: Caf4p-HA (Caf4p wt, residues 1–659) (from UniProt P36130 1-643) (natural protein)
percent coprecipitated [1]: 1% | percent coprecipitated [2]: 5% | percent coimmunoprecipitated [3]: 5%

Molecule: Caf4p-N-HA (residues 1–274) (from UniProt P36130 1-274) (domain or fragment)
percent coprecipitated [1]: 1% | percent coimmunoprecipitated [3]: 5%

The next lines start with the values.

percent coprecipitated [3]: 1%
B1: Mdv1p-N-HA (residues 1–300) (domain or fragment)
chain: MSVNDQITHIGKTLSTTASAFLNYQKSNSNTQDVLTNNGPYKNLLSNTVNNASSTSYFYKRTEHGRFVKNASNTFEDIYSKTRRGDVFRNKFTDNKTCFRMLTYISDDLLNEIPTKEGLKSDADGKLLTEGGENENLRKNASKKETSLFQGFKSYLPIAELAIENTERLNYDTNGTSGTVGAKDVMSKTNERDEIHTELPNFQDSFLIPPGVETKKISSSYSPSALKSFSQTLVNSLEFLNIQKNSTLSEIRDIEVEVENLRQKKEKLLGKIANIEQNQLLLEDNLKQIDDRLDFLEEYG

percent coprecipitated [3]: 1%
B2: Mdv1p-HA (Mdv1 wt, residues 1–714) (natural protein)
chain: MSVNDQITHIGKTLSTTASAFLNYQKSNSNTQDVLTNNGPYKNLLSNTVNNASSTSYFYKRTEHGRFVKNASNTFEDIYSKTRRGDVFRNKFTDNKTCFRMLTYISDDLLNEIPTKEGLKSDADGKLLTEGGENENLRKNASKKETSLFQGFKSYLPIAELAIENTERLNYDTNGTSGTVGAKDVMSKTNERDEIHTELPNFQDSFLIPPGVETKKISSSYSPSALKSFSQTLVNSLEFLNIQKNSTLSEIRDIEVEVENLRQKKEKLLGKIANIEQNQLLLEDNLKQIDDRLDFLEEYGLEVIEANSDENAEDDGMSERKALKNDAIRNEGVTTESISSEASNLPPRRRQQLRDDNSLNRLGAFYSKSKKRHRKSFPTFQQLYEPGTKIGSIMSTHDDFLTCLDFDAPFGTLCTAGYLDHTVKIWDLSKQNKIGELAGHLATINCMQINRDYGTLVTGGRDAALKLWNLNLAQQLYQETQNLTSPTNHIDSPCVHTFEAHTDEVTALSLDPSFLVSGSQDRTIRQWDLRSGKCLQTIDLSFANVLTTSTNVDLSKSTLLTQRNERPSIGALQSFDAALATGTKDGVVRLWDLRSGKVIRTLKGHTDAITSLKFDSACLVTGSYDRTVRIWDLRTGLLNKFHAYSAPVLSLDLFQENAAVVVADEPSVQIYDSEKDESWSCVEQGNETSVSTVKYKENYMVEGRENGDVNIWAV
